Test results taken from US20180086826A1.

Columns and labels:
[1] = target: I83E trastuzumab memAb Fab; test: SPR, 37 °C
[2] = target: meditope-enabled Trastuzumab Fab (original, Ile83); test: SPR, 37 °C, immobilized memAb
[3] = target: meditope-enabled Trastuzumab Fab (original, Ile83); test: SPR, 37 °C; against the original meditope on the original trastuzumab memAb Fab
[4] = target: I83E trastuzumab memAb Fab; test: as above
[5] = target: HER2 (UniProt P04626); test: SPR, immobilized HER2, 25 °C
[6] = target: meditope-enabled Trastuzumab Fab (original, Ile83); test: SPR, 37 °C

5-diphenyl meditope (peptide) was tested, and the Kd [1] was 0.86 nM, the τ1/2 [1] was 2400 s and the Kd [2] was 41 nM. For the same substance, the τ1/2 [2] was 60 s, the fold increase in affinity [3] was 25 fold and the fold increase in affinity [4] was 1160 fold.
I83E trastuzumab memAb Fab was tested, and the Kd [5] was 0.044 nM.
original meditope (peptide) gave a τ1/2 [6] of 16 s, a Kd [1] of 38 nM and a koff [1] of 0.0025 s⁻¹. The τ1/2 [1] was 280 s, the Kd [2] was 1000 nM and the fold increase in affinity [4] was 25 fold.
